{"source": "patent US20180171313A1", "about": "(NOVOZYMES A S, published 2018)", "binders": {"B1": {"name": "Gallaecimonas pentaromativorans lipase (lipase of the invention), mature part (enzyme)", "chain": "SGYTQTKYPIVLVHGLFGFDSLAGVDYWYGIPQALSQDGATVYVVNVSAANSTEVRGEQLLVQIDNILALTGAKKVNLIGHSHGGPTARYAASISPGKVASVTSVGGVNWGSRFADALRGTIAPGSVSESVIGAAANAFSSIIEFLSGTPADPQDSVAALNALTTAGSLAFNASYPEGMPSQYCGQGQMQAANGVYYFSWSGASPLTNVLDVTDAALGLTSLVFGESNDGLVSSCSSHLGKVIRDDYAMNHLDEVNQTFGLVSLFETNPKTLYRNQANRLKNLGL", "notes": "The forward primer adds an ATG start codon through its NdeI site; also called G. pentaromativorans lipase"}}, "biological_target": "T1, chaperone fusion protein (Chap-MBP): 6x histidine tag, E. coli maltose binding protein, linker and mature G. … (Gallaecimonas pentaromativorans …)", "T1 construct": "also called LIF", "experiment": "lipase refolded with the chaperone fusion protein, examined as the complex by differential scanning calorimetry", "description": "Sample- and reference-solutions (approx. 0.2 ml) were loaded into the calorimeter (reference: buffer without enzyme) from storage conditions at 10° C. and thermally pre-equilibrated for 20 minutes at 20° C. prior to DSC scan from 20° C. to 100° C. Denaturation temperatures were determined at an accuracy of approximately +/−1° C.\nIn complex with the chaperone fusion protein, the thermostability of the lipase was high with a Td value in the range of 79.9-94.1° C. In a non-parallel trial under similar experimental conditions the thermostability of Lipolase was measured to have a Td value of 77.0° C.", "data": [{"binder": "B1", "values": [{"measurement": "binding result", "result": "binds"}]}]}
